Data taken from PMC6169833.

B1: Nup153-N wild type (1- to 608-amino-acid N-terminal construct of Nup153), C-terminally Flag-tagged [human] / endogenous Nup107 [human (endogenous in HEK293T)] (parent)
chain 1: MASGAGGVGGGGGGKIRTRRCHQGPIKPYQQGRQQHQGILSRVTESVKNIVPGWLQRYFNKNEDVCSCSTDTSEVPRWPENKEDHLVYADEESSNITDGRITPEPAVSNTEEPSTTSTASNYPDVLTRPSLHRSHLNFSMLESPALHCQPSTSSAFPIGSSGFSLVKEIKDSTSQHDDDNISTTSGFSSRASDKDITVSKNTSLPPLWSPEAERSHSLSQHTATSSKKPAFNLSAFGTLSPSLGNSSILKTSQLGDSPFYPGKTTYGGAAAAVRQSKLRNTPYQAPVRRQMKAKQLSAQSYGVTSSTARRILQSLEKMSSPLADAKRIPSIVSSPLNSPLDRSGIDITDFQAKREKVDSQYPPVQRLMTPKPVSIATNRSVYFKPSLTPSGEFRKTNQRIDNKCSTGYEKNMTPGQNREQRESGFSYPNFSLPAANGLSSGVGGGGGKMRRERTRFVASKPLEEEEMEVPVLPKISLPITSSSLPTFNFSSPEITTSSPSPINSSQALTNKVQMTSPSSTGSPMFKFSSPIVKSTEANVLPPSSIGFTFSVPVAKTAELSGSSSTLEPIISSSAHHVTTVNSTNCKKTPPEDCEGPFRPAEILKEGSV
chain 2: MDRSGFGEISSPVIREAEVTRTARKQSAQKRVLLQASQDENFGNTTPRNQVIPRTPSSFRQPFTPTSRSLLRQPDISCILGTGGKSPRLTQSSGFFGNLSMVTNLDDSNWAAAFSSQRSGLFTNTEPHSITEDVTISAVMLREDDPGEAASMSMFSDFLQSFLKHSSSTVFDLVEEYENICGSQVNILSKIVSRATPGLQKFSKTASMLWLLQQEMVTWRLLASLYRDRIQSALEEESVFAVTAVNASEKTVVEALFQRDSLVRQSQLVVDWLESIAKDEIGEFSDNIEFYAKSVYWENTLHTLKQRQLTSYVGSVRPLVTELDPDAPIRQKMPLDDLDREDEVRLLKYLFTLIRAGMTEEAQRLCKRCGQAWRAATLEGWKLYHDPNVNGGTELEPVEGNPYRRIWKISCWRMAEDELFNRYERAIYAALSGNLKQLLPVCDTWEDTVWAYFRVMVDSLVEQEIQTSVATLDETEELPREYLGANWTLEKVFEELQATDKKRVLEENQEHYHIVQKFLILGDIDGLMDEFSKWLSKSRNNLPGHLLRFMTHLILFFRTLGLQTKEEVSIEVLKTYIQLLIREKHTNLIAFYTCHLPQDLAVAQYALFLESVTEFEQRHHCLELAKEADLDVATITKTVVENIRKKDNGEFSHHDLAPALDTGTTEEDRLKIDVIDWLVFDPAQRAEALKQGNAIMRKFLASKKHEAAKEVFVKIPQDSIAEIYNQCEEQGMESPLPAEDDNAIREHLCIRAYLEAHETFNEWFKHMNSVPQKPALIPQPTFTEKVAHEHKEKKYEMDFGIWKGHLDALTADVKEKMYNVLLFVDGGWMVDVREDAKEDHERTHQMVLLRKLCLPMLCFLLHTILHSTGQYQECLQLADMVSSERHKLYLVFSKEELRKLLQKLRESSLMLLDQGLDPLGYEIQL

Variants of: B1
Assay: Flag immunoprecipitation and Western blotting, quantified with ImageJ
Conditions: HEK293T cells transfected with Nup153-N constructs, harvested 72 h after transfection, parent: 1, read off a plot

| ratio to parent | Variant |
| --- | --- |
| 0.57 | chain 1 S516E S518E S519E S522E |
